B1: HES-GCSF 50/0.7: hG-CSF conjugated with AldehydoHES50/0.7 of example 6.1(j), prepared in example 6.2(b) (conjugate, UniProt P09919 31-207, looked up)
Granulocyte …: TPLGPASSLPQSFLLKCLEQVRKIQGDGAALQEKLVSECATYKLCHPEELVLLGHSLGIPWAPLSSCPSQALQLAGCLSQLHSGLFLYQGLLQALEGISPELGPTLDTLQLDVADFATTIWQQMEELGMAPALQPTQGAMPAFASAFQRRAGGVLVASHLQSFLEVSYRVLRHLAQP
modifications: hydroxyethyl starch conjugate HES50/0.7
B2: Neulasta: non-modified Neulasta (Amgen) (conjugate, UniProt P09919 31-207, looked up)
Granulocyte …: B1 Granulocyte …
modifications: pegfilgrastim; 20 kDa PEG
B3: Neupogen: non-modified Neupogen (Amgen), rhG-CSF filgrastim, non-glycosylated, E. coli (protein, UniProt P09919 31-207, looked up)
Granulocyte …: B1 Granulocyte …
modifications: filgrastim, N-terminal Met
notes: non-modified Neupogen (Amgen), rhG-CSF filgrastim, non-glycosylated, E. coli
B4: HES-GCSF 30/0.4: hG-CSF conjugated with AldehydoHES30/0.4 of example 6.1(f), prepared in example 6.2(d) (conjugate, UniProt P09919 31-207, looked up)
Granulocyte …: B1 Granulocyte …
modifications: hydroxyethyl starch conjugate HES30/0.4
B5: HES-GCSF 10/0.7: hG-CSF conjugated with AldehydoHES10/0.7 of example 6.1(d), prepared in example 6.2(b) (conjugate, UniProt P09919 31-207, looked up)
Granulocyte …: B1 Granulocyte …
modifications: hydroxyethyl starch conjugate HES10/0.7
B6: Mock-incubation: reaction control: hG-CSF incubated with 197 mg/ml non-functionalized HES50/0.7 (MW 47,000 D, DS 0.76) (protein, UniProt P09919 31-207, looked up)
Granulocyte …: B1 Granulocyte …
modifications: mixed with non-functionalized HES
B7: HES-GCSF 10/0.4: hG-CSF conjugated with AldehydoHES10/0.4 of example 6.1(b), prepared in example 6.2(b) (conjugate, UniProt P09919 31-207, looked up)
Granulocyte …: B1 Granulocyte …
modifications: hydroxyethyl starch conjugate HES10/0.4

test system: not listed separately; assay: In vivo half-life of G-CSF samples in mice (ELISA of plasma); conditions: 100 μg per kg i.v. tail vein, female BALB/c mice
Experimental: Female mice BALB/cOlaHsd (Harlan GmbH/Borchen) were used. On the day of administration, the is weights of the animals were measured (19-22 g). 100 μg per kg body weight of the chemically modified rh-G-CSF sample as prepared in Example 6.2(b) as well as Neupogen® and Neulasta® (Amgen) samples were each injected intravenously in the tail vein of nine mice. At 1, 3, 6, 11, 22, 30, 49, 72 hours after injection (see table below), samples of approx. 150 μl whole blood were taken from the tail vein or the retrobulbar venous plexus from 3 mice of the respective group using capillaries containing sodium-heparin (Hirschmann, Eberstadt) and stored on ice until preparation of plasma.
Whole blood was centrifuged for 10 minutes at 2000 g. Plasma was transferred to another tube and recentrifuged for 5 min at 3500 g. Aliquots were stored at −80° C. until the day of analysis. The amount of G-CSF in the plasma samples were quantified by utilizing a ELISA (R&D GambH, Wiesbaden) method, following the instruction of the manufacturer.

B1 and B2 are within 1.5-fold of each other in half-life: 5.1 h for the first, 5.2 h for the second.

With B3 the half-life was 1.2 h.

test system: mouse NFS-60 cells; assay: Mitogenicity of G-CSF variants for mouse NFS-60 cells (Example 6.3); type: cell-based; conditions: Conc. 5 pg/ml (G-CSF content), 3 days
Experimental: G-CSF is known for its specific effects on the proliferation, differentiation and activation of hematopoietic cells of the neutrophilic granulocyte lineage. The mitogenic capacity of G-CSF variants was tested using mouse NFS-60 cells (N. Shirafuji et al., Exp. Hematol. 1989, 17, 116-119). Cells grown in RPMI medium with 10% fetal calf serum (Gibco INVITROGEN GmbH, Karlsruhe, D) containing 5-10% WEHI-3B (DSMZ, Braunschweig, D; cultivated as described by the DSMZ) conditioned medium as source of exogenous IL-3 were harvested by centrifugation, washed and aliquoted at 100,000 cells per well in a 24-well plate. Cells were allowed to adapt for 1 hour at 37° C. in RPMI medium without WEHI-3B conditioned media before G-CSF growth factor samples diluted in the same media were added. NFS-60 cells were exposed to purified G-CSF variants (purification according to examples 3A 1 und 2, protein quantification according to example 3B1):
“Mock incubation” (=reaction control, 197 mg/ml HES50/0.7, MW 47,000 D, DS 0.76, Supramol Parenteral Colloids GmbH, Rosbach Rodheim, Germany), for 3 days at 37° C. and then the cells were electronically counted (Casy TT Cell Counter, Schärfe System, Reutlingen, D).
In all cases, the amounts of protein given in the table below and FIG. 21 represent the G-CSF content of the conjugates only. […] All variants reached the same maximum stimulation level at a concentration of 250 pg/ml.

Compared with B1, B4 is higher in “Proliferation of mouse NFS-60 cells, induced by G-CSF variants” value (“Proliferation of mouse NFS-60 cells” for short): 0.70 for the first, 1.21 for the second.

Going from B5 to B6, the “Proliferation of mouse NFS-60 cells” value rises from 0.93 to 1.31.

Going from B7 to B2, the “Proliferation of mouse NFS-60 cells” value falls from 0.97 to 0.80.

In the case of B3, the “Proliferation of mouse NFS-60 cells” value is reported as 1.20.

same assay, conditions: Conc. 10 pg/ml (G-CSF content), 3 days

Going from B1 to B4, the “Proliferation of mouse NFS-60 cells” value rises from 0.97 to 1.62.

First: B5
Second: B6
The “Proliferation of mouse NFS-60 cells” value of the first is lower: 1.44 for the first, 1.91 for the second.

Going from B7 to B2, the “Proliferation of mouse NFS-60 cells” value falls from 1.40 to 1.12.

With B3 the “Proliferation of mouse NFS-60 cells” value was 1.69.

same assay, conditions: Conc. 25 pg/ml (G-CSF content), 3 days

Compared with B1, B4 is higher in “Proliferation of mouse NFS-60 cells” value: 1.68 for the first, 2.28 for the second.

Compared with B5, B6 is higher in “Proliferation of mouse NFS-60 cells” value: 2.14 for the first, 2.38 for the second.

Going from B7 to B2, the “Proliferation of mouse NFS-60 cells” value falls from 2.17 to 1.83.

For B3, the “Proliferation of mouse NFS-60 cells” value was 2.33.

same assay, conditions: Conc. 50 pg/ml (G-CSF content), 3 days

Compared with B1, B4 is higher in “Proliferation of mouse NFS-60 cells” value: 2.15 for the first, 2.50 for the second.

Going from B5 to B6, the “Proliferation of mouse NFS-60 cells” value rises from 2.41 to 2.47.

Going from B7 to B2, the “Proliferation of mouse NFS-60 cells” value falls from 2.67 to 2.25.

In the case of B3, the “Proliferation of mouse NFS-60 cells” value is reported as 2.49.

same assay, conditions: Conc. 250 pg/ml (G-CSF content), 3 days

Compared with B1, B4 is higher in “Proliferation of mouse NFS-60 cells” value: 2.32 for the first, 2.60 for the second.

B5 and B6 are the same in “Proliferation of mouse NFS-60 cells” value: 2.41 for the first, 2.41 for the second.

Compared with B7, B2 is lower in “Proliferation of mouse NFS-60 cells” value: 2.75 for the first, 2.33 for the second.

With B3 the “Proliferation of mouse NFS-60 cells” value was 2.41.

test system: not given; assay: not given; conditions: cited from earlier work

In the case of activated protein C, the “circulatory activity half-life in vivo” value is listed as “less than 30 min”.

test system: normocythaemic mouse system; assay: EPO-bioassay in the normocythaemic mouse system; type: in vivo; conditions: mouse, in vivo
Experimental: Quantitative determination of EPO protein was performed by measuring UV absorption at 280 nm according to the Eur. Phar. (European Pharmacopeia 4, Monography 01/2002: 1316: erythropoietin concentrated solution) in a cuvette with 1 cm path length. In addition, EPO was quantitated by applying a RP-HPLC method using a RP-C4 column (Vydac Protein C4, Cat.#214TP5410, Grace Vydac, Ca, US); the HPLC method was calibrated using the erythropoietin BRP 1 reference standard (European Pharmacopeia, Conseil de l'Europe B.P. 907-F67029, Strasbourg Cedex 1).
The EPO-bioassay in the normocythaemic mouse system was performed according to the procedures described in the European Pharmacopeia 4, Monography 01/2002:1316: Erythropoietin concentrated solution and Ph. Eur. Chapter 5.3: “Statistical Analysis of Results of Biological Assays and Tests”; For the HES-modified EPO according to example 7.3 a value for the specific activity of 418 500 units per mg EPO of protein was measured indicating an approximately 4-5 fold higher specific activity when compared to the EPO starting material.

First: EPO HES according to example 7.3: recombinant human EPO conjugated with aldehydo-HES of example 7.2 (MW 57,000 D, DS 0.76) by reductive amination
Second: EPO starting material (Reaction control A): EPO reacted with aldehydo-HES without sodium cyanoborohydride (example 7.4)
The “Calculated specific activity of EPO sample (based on A280 and RP-HPLC determination)” value of the first is higher: 418500 U/mg for the first, 88500 U/mg for the second.

For “EPO starting material (not modified): recombinant human EPO, essentially same characteristics as Erypo or NeoRecormon”, the “Calculated specific activity of EPO sample (based on A280 and RP-HPLC determination)” value was 89000 U/mg.

For “EPO HES according to example 7.3: recombinant human EPO conjugated with aldehydo-HES of example 7.2 (MW 57,000 D, DS 0.76) by reductive amination”, the “higher specific activity when compared to the EPO starting material” value was 4-5 fold.

same assay, conditions: per mg EPO of protein

With “EPO HES according to example 7.3: recombinant human EPO conjugated with aldehydo-HES of example 7.2 (MW 57,000 D, DS 0.76) by reductive amination” the specific activity was 418 500 units per mg.

test system: not listed separately; assay: In-vivo half-life of alpha1AT samples in mice (alpha1AT-ELISA); conditions: 100 μl of 50 μg/ml i.v. tail vein, female BALB/c mice
Experimental: Female mice aged 8-10 weeks (BALB/cOlaHsd, Harlan GmbH, Borchen, Germany) were utilized as test organism (42 mice, 14 per sample). The “is bodyweight” of each animal was detected right before administration of the different sample solutions. 100 μl of a 50 μg/ml solution of the samples outlined below in a puffer pH=7.2 (20 mmol sodium phosphate, 150 mmol sodium chloride) were injected intravenously in the tail vein of the mice.
At 1, 2, 4, 10, 24, 31, […], hours after injection, two mice of each group were killed and whole blood samples (˜500 μl) were withdrawn from the heart of the animals. Serum was prepared using Microvette® 500 Z-Gel (Sarstedt, Nümbrecht, Germany). The serum samples were stored at −80° C. until the beginning of the alpha1AT concentration measurements.
alpha1AT concentrations were detected using a commercially available alpha1AT-ELISA (Immundiagnostik, Bensheim, Germany) following the manufacturers instructions.

First: A1AT: rh A1AT provided by GTC Biotherapeutics Inc., lot No. 080604A; starting material for the conjugation [Example A1AT]
Second: HES-A1AT-conjugate: conjugate of aldehydo-HES (A) and (B) (MW 57,000 D, DS 0.76) with rh A1AT, example 5.5
The “Plasma half-life in mice” value of the first is 3-fold lower: 1.2 h for the first, 3.6 h for the second.

In the case of “Sample 3: plasma derived h alpha1 AT (SERVA Electrophoresis GmbH) [reference compound]”, the “Plasma half-life in mice” value is reported as 3.2 h.

— patent US8287850B2, “Conjugates of hydroxyalkyl starch and a protein, prepared by reductive amination” (Fresenius Kabi Deutschland GmbH, priority 2004, dated 2012)
